The labels stand for the following.
B1: PWWP2B (parent)
chain: TIRLRPRQVLCEKCKSTLSPPEAS

This passage reports protein stability index results from the supplement of paper PMC10567573.
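Further: lentivirally expressed fusions sorted by FACS into six bins by GFP to DsRed ratio, PSI derived from sequencing read proportions per bin multiplied by bin number.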

Variants of B1 are the subject of the data set. Put plainly: protein stability index of a GFP-peptide fusion (GPS, HEK-293T) (PSI 1-6); higher = more stable. Conditions: c terminus: a fixed tail appended.
Turning to TIRKRPRQVLCEKCKSTLSPPEAS [L4K], the protein stability index stood at 3.58.

On to TIRARPRQVLCEKCKSTLSPPEAS [L4A], for which the protein stability index worked out at 2.99.

For the variant TIRFRPRQVLCEKCKSTLSPPEAS [L4F], the protein stability index was 2.77.

Turning to TIRTRPRQVLCEKCKSTLSPPEAS [L4T], the protein stability index was 3.85.

For TIRQRPRQVLCEKCKSTLSPPEAS [L4Q], the protein stability index was 3.04.

In the case of TIRWRPRQVLCEKCKSTLSPPEAS [L4W], the protein stability index amounted to 2.31.

Regarding TIRDRPRQVLCEKCKSTLSPPEAS [L4D], the protein stability index worked out at 4.18.

For TIRSRPRQVLCEKCKSTLSPPEAS [L4S], the protein stability index came out at 3.6.

With TIRRRPRQVLCEKCKSTLSPPEAS [L4R], the protein stability index is 3.03.

For TIRVRPRQVLCEKCKSTLSPPEAS [L4V], the protein stability index came to 3.22.

Turning to TIRNRPRQVLCEKCKSTLSPPEAS [L4N], the protein stability index came out at 3.58.

Take TIRYRPRQVLCEKCKSTLSPPEAS [L4Y]: the protein stability index is 2.87.

Take TIRHRPRQVLCEKCKSTLSPPEAS [L4H]: the protein stability index was 3.23.

TIRIRPRQVLCEKCKSTLSPPEAS [L4I]: the protein stability index is 2.79.

In the case of TIRPRPRQVLCEKCKSTLSPPEAS [L4P], the protein stability index is 3.45.

As to TIRCRPRQVLCEKCKSTLSPPEAS [L4C], the protein stability index amounted to 3.45.

Take TIRMRPRQVLCEKCKSTLSPPEAS [L4M]: the protein stability index worked out at 3.32.

For the variant TIRERPRQVLCEKCKSTLSPPEAS [L4E], the protein stability index stood at 3.79.

Take TIRGRPRQVLCEKCKSTLSPPEAS [L4G]: the protein stability index was found to be 3.63.

On to TIRLRPRQVTCEKCKSTLSPPEAS [L10T], for which the protein stability index came out at 3.43.

As for TIRLRPRQVKCEKCKSTLSPPEAS [L10K], the protein stability index was determined as 3.38.

With TIRLRPRQVACEKCKSTLSPPEAS [L10A], the protein stability index worked out at 3.44.

Consider TIRLRPRQVRCEKCKSTLSPPEAS [L10R], for which the protein stability index came to 2.84.

For TIRLRPRQVCCEKCKSTLSPPEAS [L10C], the protein stability index was 3.21.

Consider TIRLRPRQVWCEKCKSTLSPPEAS [L10W], for which the protein stability index turned out to be 2.48.

TIRLRPRQVQCEKCKSTLSPPEAS [L10Q]: the protein stability index was found to be 3.53.

As for TIRLRPRQVFCEKCKSTLSPPEAS [L10F], the protein stability index was determined as 1.94.

For the variant TIRLRPRQVICEKCKSTLSPPEAS [L10I], the protein stability index is 2.83.

With TIRLRPRQVSCEKCKSTLSPPEAS [L10S], the protein stability index was found to be 3.13.

As for TIRLRPRQVNCEKCKSTLSPPEAS [L10N], the protein stability index was 3.53.

Take TIRLRPRQVHCEKCKSTLSPPEAS [L10H]: the protein stability index came out at 3.3.

For the variant TIRLRPRQVPCEKCKSTLSPPEAS [L10P], the protein stability index was 3.37.

For TIRLRPRQVVCEKCKSTLSPPEAS [L10V], the protein stability index is 3.61.

In the case of TIRLRPRQVDCEKCKSTLSPPEAS [L10D], the protein stability index worked out at 3.9.

Take TIRLRPRQVMCEKCKSTLSPPEAS [L10M]: the protein stability index stood at 2.83.

With TIRLRPRQVGCEKCKSTLSPPEAS [L10G], the protein stability index stood at 3.17.

Consider TIRLRPRQVYCEKCKSTLSPPEAS [L10Y], for which the protein stability index was 2.5.

For TIRLRPRQVECEKCKSTLSPPEAS [L10E], the protein stability index was 3.35.

With TIRLDPRQVLCEKCKSTLSPPEAS [R5D], the protein stability index was 3.73.

For the variant TIRLGPRQVLCEKCKSTLSPPEAS [R5G], the protein stability index was found to be 3.37.

As for TIRLIPRQVLCEKCKSTLSPPEAS [R5I], the protein stability index stood at 2.93.

As for TIRLQPRQVLCEKCKSTLSPPEAS [R5Q], the protein stability index stood at 3.

For TIRLCPRQVLCEKCKSTLSPPEAS [R5C], the protein stability index was found to be 2.77.

In the case of TIRLNPRQVLCEKCKSTLSPPEAS [R5N], the protein stability index came out at 2.78.

With TIRLKPRQVLCEKCKSTLSPPEAS [R5K], the protein stability index is 2.96.

For TIRLHPRQVLCEKCKSTLSPPEAS [R5H], the protein stability index worked out at 3.16.

In the case of TIRLAPRQVLCEKCKSTLSPPEAS [R5A], the protein stability index worked out at 3.34.

With TIRLFPRQVLCEKCKSTLSPPEAS [R5F], the protein stability index worked out at 3.19.

As for TIRLMPRQVLCEKCKSTLSPPEAS [R5M], the protein stability index amounted to 3.22.

As to TIRLYPRQVLCEKCKSTLSPPEAS [R5Y], the protein stability index stood at 2.73.

As to TIRLSPRQVLCEKCKSTLSPPEAS [R5S], the protein stability index was determined as 3.43.

Consider TIRLEPRQVLCEKCKSTLSPPEAS [R5E], for which the protein stability index was found to be 4.03.

For the variant TIRLVPRQVLCEKCKSTLSPPEAS [R5V], the protein stability index came to 3.52.

TIRLTPRQVLCEKCKSTLSPPEAS [R5T]: the protein stability index was found to be 3.1.

As to TIRLWPRQVLCEKCKSTLSPPEAS [R5W], the protein stability index turned out to be 2.9.

Regarding TIRLPPRQVLCEKCKSTLSPPEAS [R5P], the protein stability index came to 3.54.

On to TIRLLPRQVLCEKCKSTLSPPEAS [R5L], for which the protein stability index is 2.91.

As for TIRLRPSQVLCEKCKSTLSPPEAS [R7S], the protein stability index came to 3.01.

On to TIRLRPCQVLCEKCKSTLSPPEAS [R7C], for which the protein stability index is 3.2.

Turning to TIRLRPTQVLCEKCKSTLSPPEAS [R7T], the protein stability index stood at 3.31.

TIRLRPGQVLCEKCKSTLSPPEAS [R7G]: the protein stability index worked out at 3.12.

In the case of TIRLRPVQVLCEKCKSTLSPPEAS [R7V], the protein stability index amounted to 2.96.

In the case of TIRLRPYQVLCEKCKSTLSPPEAS [R7Y], the protein stability index was 2.69.

Consider TIRLRPPQVLCEKCKSTLSPPEAS [R7P], for which the protein stability index worked out at 3.33.

For the variant TIRLRPLQVLCEKCKSTLSPPEAS [R7L], the protein stability index turned out to be 2.62.

For TIRLRPKQVLCEKCKSTLSPPEAS [R7K], the protein stability index was 2.99.

On to TIRLRPAQVLCEKCKSTLSPPEAS [R7A], for which the protein stability index is 3.48.

In the case of TIRLRPEQVLCEKCKSTLSPPEAS [R7E], the protein stability index was determined as 3.9.

TIRLRPWQVLCEKCKSTLSPPEAS [R7W]: the protein stability index stood at 2.16.

With TIRLRPMQVLCEKCKSTLSPPEAS [R7M], the protein stability index was found to be 2.92.

For TIRLRPDQVLCEKCKSTLSPPEAS [R7D], the protein stability index was 3.85.

For TIRLRPHQVLCEKCKSTLSPPEAS [R7H], the protein stability index came to 3.1.

As for TIRLRPIQVLCEKCKSTLSPPEAS [R7I], the protein stability index is 2.9.

As for TIRLRPQQVLCEKCKSTLSPPEAS [R7Q], the protein stability index is 3.38.

Regarding TIRLRPNQVLCEKCKSTLSPPEAS [R7N], the protein stability index was found to be 2.87.

Take TIRLRPFQVLCEKCKSTLSPPEAS [R7F]: the protein stability index came out at 2.94.

For the variant TIRLRPRQVLAEKCKSTLSPPEAS [C11A], the protein stability index came out at 3.06.

Regarding TIRLRPRQLLCEKCKSTLSPPEAS [V9L], the protein stability index came to 2.37.

In the case of TIRLRPRQILCEKCKSTLSPPEAS [V9I], the protein stability index was found to be 3.

TIRLRPRQCLCEKCKSTLSPPEAS [V9C]: the protein stability index is 3.42.

For the variant TIRLRPRQTLCEKCKSTLSPPEAS [V9T], the protein stability index stood at 3.33.

On to TIRLRPRQMLCEKCKSTLSPPEAS [V9M], for which the protein stability index worked out at 2.73.

For TIRLRPRQKLCEKCKSTLSPPEAS [V9K], the protein stability index is 2.85.

On to TIRLRPRQGLCEKCKSTLSPPEAS [V9G], for which the protein stability index was 2.64.

As to TIRLRPRQHLCEKCKSTLSPPEAS [V9H], the protein stability index was 2.97.

With TIRLRPRQALCEKCKSTLSPPEAS [V9A], the protein stability index amounted to 3.61.

Regarding TIRLRPRQRLCEKCKSTLSPPEAS [V9R], the protein stability index worked out at 2.94.

With TIRLRPRQDLCEKCKSTLSPPEAS [V9D], the protein stability index turned out to be 3.19.

As for TIRLRPRQQLCEKCKSTLSPPEAS [V9Q], the protein stability index was 3.31.

As for TIRLRPRQFLCEKCKSTLSPPEAS [V9F], the protein stability index was 2.72.

In the case of TIRLRPRQPLCEKCKSTLSPPEAS [V9P], the protein stability index is 3.13.

Turning to TIRLRPRQYLCEKCKSTLSPPEAS [V9Y], the protein stability index amounted to 2.54.

As for TIRLRPRQSLCEKCKSTLSPPEAS [V9S], the protein stability index is 3.16.

As to TIRLRPRQELCEKCKSTLSPPEAS [V9E], the protein stability index came to 3.35.
